# Experimental data taken from patent publication US20230002480A1.
# Tests used:
# Assay in all cases: cell-based or functional assay
# [1] = biological target: HIV-1 Env of pseudovirus 6240_08_TA5_4622 (HIV-1)
# [2] = biological target: HIV-1 Env of pseudovirus 231966.c02 (HIV-1)
# [3] = biological target: HIV-1 Env of pseudovirus THRO4156.18 (HIV-1)
# [4] = biological target: HIV-1 Env of pseudovirus Q461.e2 (HIV-1)
# [5] = biological target: HIV-1 Env of pseudovirus HIV-0013095-2.11 (HIV-1)
# [6] = biological target: HIV-1 Env of pseudovirus Ce1172_H1 (HIV-1)
# [7] = biological target: HIV-1 Env of pseudovirus 231965.c01 (HIV-1)
# [8] = biological target: HIV-1 Env of pseudovirus Ce2010_F5 (HIV-1)
# [9] = biological target: HIV-1 Env of pseudovirus 191955_A11 (HIV-1)
# [10] = biological target: HIV-1 Env of pseudovirus 6041.v3.c23 (HIV-1)
# [11] = biological target: HIV-1 Env of pseudovirus TRO.11 (HIV-1)
# [12] = biological target: HIV-1 Env of pseudovirus 1012_11_TC21_3257 (HIV-1)
# [13] = biological target: HIV-1 Env of pseudovirus P1981_C5_3 (HIV-1)
# [14] = biological target: HIV-1 Env of pseudovirus Du156.12 (HIV-1)
# [15] = biological target: HIV-1 Env of pseudovirus BJOX028000.10.3 (HIV-1)
# [16] = biological target: HIV-1 Env of pseudovirus T250-4 (HIV-1)
# [17] = biological target: HIV-1 Env of pseudovirus HIV-16845-2.22 (HIV-1)
# [18] = biological target: HIV-1 Env of pseudovirus SC422661.8 (HIV-1)
# [19] = biological target: HIV-1 Env of pseudovirus CNE53 (HIV-1)
# [20] = biological target: HIV-1 Env of pseudovirus ZM247v1(Rev-) (HIV-1)
# [21] = biological target: HIV-1 Env of pseudovirus 3016.v5.c45 (HIV-1)
# [22] = biological target: HIV-1 Env of pseudovirus ZM109F.PB4 (HIV-1)
# [23] = biological target: HIV-1 Env of pseudovirus CNE19 (HIV-1)
# [24] = biological target: HIV-1 Env of pseudovirus T255-34 (HIV-1)
# [25] = biological target: HIV-1 Env of pseudovirus CNE52 (HIV-1)
# [26] = biological target: HIV-1 Env of pseudovirus 3365.v2.c2 (HIV-1)
# [27] = biological target: HIV-1 Env of pseudovirus X2088_c9 (HIV-1)
# [28] = biological target: HIV-1 Env of pseudovirus CNE17 (HIV-1)
# [29] = biological target: HIV-1 Env of pseudovirus AC10.0.29 (HIV-1)
# [30] = biological target: HIV-1 Env of pseudovirus 6480.v4.c25 (HIV-1)
# [31] = biological target: HIV-1 Env of pseudovirus 211-9 (HIV-1)
# [32] = biological target: HIV-1 Env of pseudovirus C2101.c01 (HIV-1)
# [33] = biological target: HIV-1 Env of pseudovirus WEAU_d15_410_787 (HIV-1)
# [34] = biological target: HIV-1 Env of pseudovirus CNE21 (HIV-1)
# [35] = biological target: HIV-1 Env of pseudovirus BJOX025000.01.1 (HIV-1)
# [36] = biological target: HIV-1 Env of pseudovirus Ce1176_A3 (HIV-1)
substance,measurement,setting,value
NIH 45-46 (antibody),neutralization IC50,[1],0.44 µg/mL
same,neutralization IC80,[1],1.55 µg/mL
same,"IC50, titer in TZM.bl cells",[2],1.11 µg/mL
same,"IC80, titer in TZM.bl cells",[2],11.4 µg/mL
same,neutralization IC50,[3],1.59 µg/mL
same,neutralization IC80,[3],6.02 µg/mL
same,neutralization IC50,[4],0.06 µg/mL
same,neutralization IC80,[4],0.32 µg/mL
same,neutralization IC50,[5],0.01 µg/mL
same,neutralization IC80,[5],0.03 µg/mL
same,neutralization IC50,[6],> 50 µg/mL
same,neutralization IC80,[6],> 50 µg/mL
same,"IC50, titer in TZM.bl cells",[7],0.1 µg/mL
same,"IC80, titer in TZM.bl cells",[7],0.1 µg/mL
same,neutralization IC50,[8],0.13 µg/mL
same,neutralization IC80,[8],0.43 µg/mL
same,neutralization IC50,[9],0.11 µg/mL
same,neutralization IC80,[9],0.43 µg/mL
same,"IC50, titer in TZM.bl cells",[10],0.01 µg/mL
same,"IC80, titer in TZM.bl cells",[10],0.04 µg/mL
same,neutralization IC50,[11],1.9 µg/mL
same,neutralization IC80,[11],9.56 µg/mL
same,neutralization IC50,[12],0.01 µg/mL
same,neutralization IC80,[12],0.04 µg/mL
same,"IC50, titer in TZM.bl cells",[13],0.05 µg/mL
same,"IC80, titer in TZM.bl cells",[13],0.22 µg/mL
same,neutralization IC50,[14],0.01 µg/mL
same,neutralization IC80,[14],0.05 µg/mL
same,"IC50, titer in TZM.bl cells",[15],0.07 µg/mL
same,"IC80, titer in TZM.bl cells",[15],> 50 µg/mL
same,"IC50, titer in TZM.bl cells",[16],> 30 µg/mL
same,"IC80, titer in TZM.bl cells",[16],> 30 µg/mL
same,neutralization IC50,[17],2.05 µg/mL
same,neutralization IC80,[17],12.1 µg/mL
same,neutralization IC50,[18],0.01 µg/mL
same,neutralization IC80,[18],0.07 µg/mL
same,neutralization IC50,[19],0.01 µg/mL
same,neutralization IC80,[19],0.04 µg/mL
same,neutralization IC50,[20],1.64 µg/mL
same,neutralization IC80,[20],> 50 µg/mL
same,"IC50, titer in TZM.bl cells",[21],> 30 µg/mL
same,"IC80, titer in TZM.bl cells",[21],> 30 µg/mL
same,neutralization IC50,[22],0.22 µg/mL
same,neutralization IC80,[22],0.22 µg/mL
same,neutralization IC50,[23],0.07 µg/mL
same,neutralization IC80,[23],0.37 µg/mL
same,"IC50, titer in TZM.bl cells",[24],0.23 µg/mL
same,"IC80, titer in TZM.bl cells",[24],2.38 µg/mL
same,neutralization IC50,[25],0.03 µg/mL
same,neutralization IC80,[25],0.12 µg/mL
same,neutralization IC50,[26],0.11 µg/mL
same,neutralization IC80,[26],0.11 µg/mL
same,"IC50, titer in TZM.bl cells",[27],> 50 µg/mL
same,"IC80, titer in TZM.bl cells",[27],> 50 µg/mL
same,neutralization IC50,[28],0.15 µg/mL
same,neutralization IC80,[28],0.55 µg/mL
same,neutralization IC50,[29],0.42 µg/mL
same,neutralization IC80,[29],1.49 µg/mL
same,"IC50, titer in TZM.bl cells",[30],0.02 µg/mL
same,"IC80, titer in TZM.bl cells",[30],0.08 µg/mL
same,"IC50, titer in TZM.bl cells",[31],> 50 µg/mL
same,"IC80, titer in TZM.bl cells",[31],> 50 µg/mL
same,"IC50, titer in TZM.bl cells",[32],12.8 µg/mL
same,"IC80, titer in TZM.bl cells",[32],> 50 µg/mL
same,neutralization IC50,[33],0.01 µg/mL
same,neutralization IC80,[33],0.03 µg/mL
same,neutralization IC50,[34],7.53 µg/mL
same,neutralization IC80,[34],> 50 µg/mL
same,"IC50, titer in TZM.bl cells",[35],0.18 µg/mL
same,"IC80, titer in TZM.bl cells",[35],10 µg/mL
same,neutralization IC50,[36],1.29 µg/mL
same,neutralization IC80,[36],5.55 µg/mL
8ANC195 (antibody),neutralization IC50,[1],> 50 µg/mL
same,neutralization IC80,[1],> 50 µg/mL
same,"IC50, titer in TZM.bl cells",[2],0.54 µg/mL
same,"IC80, titer in TZM.bl cells",[2],2.98 µg/mL
same,neutralization IC50,[3],> 50 µg/mL
same,neutralization IC80,[3],> 50 µg/mL
same,neutralization IC50,[4],0.63 µg/mL
same,neutralization IC80,[4],2.51 µg/mL
same,neutralization IC50,[5],0.32 µg/mL
same,neutralization IC80,[5],1.85 µg/mL
same,neutralization IC50,[6],42.3 µg/mL
same,neutralization IC80,[6],> 50 µg/mL
same,"IC50, titer in TZM.bl cells",[7],2.36 µg/mL
same,"IC80, titer in TZM.bl cells",[7],2.36 µg/mL
same,neutralization IC50,[8],> 50 µg/mL
same,neutralization IC80,[8],> 50 µg/mL
same,neutralization IC50,[9],> 50 µg/mL
same,neutralization IC80,[9],> 50 µg/mL
same,"IC50, titer in TZM.bl cells",[10],> 50 µg/mL
same,"IC80, titer in TZM.bl cells",[10],> 50 µg/mL
same,neutralization IC50,[11],0.18 µg/mL
same,neutralization IC80,[11],0.89 µg/mL
same,neutralization IC50,[12],> 50 µg/mL
same,neutralization IC80,[12],> 50 µg/mL
same,"IC50, titer in TZM.bl cells",[13],0.14 µg/mL
same,"IC80, titer in TZM.bl cells",[13],1.15 µg/mL
same,neutralization IC50,[14],0.22 µg/mL
same,neutralization IC80,[14],1.56 µg/mL
same,"IC50, titer in TZM.bl cells",[15],0.45 µg/mL
same,"IC80, titer in TZM.bl cells",[15],2.83 µg/mL
same,"IC50, titer in TZM.bl cells",[16],> 50 µg/mL
same,"IC80, titer in TZM.bl cells",[16],> 50 µg/mL
same,neutralization IC50,[17],3.3 µg/mL
same,neutralization IC80,[17],20.1 µg/mL
same,neutralization IC50,[18],0.29 µg/mL
same,neutralization IC80,[18],4.67 µg/mL
same,neutralization IC50,[19],> 50 µg/mL
same,neutralization IC80,[19],> 50 µg/mL
same,neutralization IC50,[20],3.41 µg/mL
same,neutralization IC80,[20],25.1 µg/mL
same,"IC50, titer in TZM.bl cells",[21],0.87 µg/mL
same,"IC80, titer in TZM.bl cells",[21],> 50 µg/mL
same,neutralization IC50,[22],> 30 µg/mL
same,neutralization IC80,[22],> 30 µg/mL
same,neutralization IC50,[23],0.29 µg/mL
same,neutralization IC80,[23],1.73 µg/mL
same,"IC50, titer in TZM.bl cells",[24],0.54 µg/mL
same,"IC80, titer in TZM.bl cells",[24],8.09 µg/mL
same,neutralization IC50,[25],5.59 µg/mL
same,neutralization IC80,[25],43.1 µg/mL
same,neutralization IC50,[26],> 30 µg/mL
same,neutralization IC80,[26],> 30 µg/mL
same,"IC50, titer in TZM.bl cells",[27],> 50 µg/mL
same,"IC80, titer in TZM.bl cells",[27],> 50 µg/mL
same,neutralization IC50,[28],2.59 µg/mL
same,neutralization IC80,[28],11.1 µg/mL
same,neutralization IC50,[29],0.88 µg/mL
same,neutralization IC80,[29],7 µg/mL
same,"IC50, titer in TZM.bl cells",[30],0.16 µg/mL
same,"IC80, titer in TZM.bl cells",[30],1.13 µg/mL
same,"IC50, titer in TZM.bl cells",[31],1.34 µg/mL
same,"IC80, titer in TZM.bl cells",[31],8.43 µg/mL
same,"IC50, titer in TZM.bl cells",[32],0.48 µg/mL
same,"IC80, titer in TZM.bl cells",[32],3.54 µg/mL
same,neutralization IC50,[33],> 50 µg/mL
same,neutralization IC80,[33],> 50 µg/mL
same,neutralization IC50,[34],0.27 µg/mL
same,neutralization IC80,[34],1.52 µg/mL
same,"IC50, titer in TZM.bl cells",[35],4.96 µg/mL
same,"IC80, titer in TZM.bl cells",[35],> 50 µg/mL
same,neutralization IC50,[36],4.45 µg/mL
same,neutralization IC80,[36],35.2 µg/mL
